Experimental data: the supplement of paper PMC6379048

What was measured:
Assay in all cases: Kd (EC50 corrected by depletion factor)
MEX3D = biological target: T1, MEX3D (UniProt Q86XN8)
T1 sequence: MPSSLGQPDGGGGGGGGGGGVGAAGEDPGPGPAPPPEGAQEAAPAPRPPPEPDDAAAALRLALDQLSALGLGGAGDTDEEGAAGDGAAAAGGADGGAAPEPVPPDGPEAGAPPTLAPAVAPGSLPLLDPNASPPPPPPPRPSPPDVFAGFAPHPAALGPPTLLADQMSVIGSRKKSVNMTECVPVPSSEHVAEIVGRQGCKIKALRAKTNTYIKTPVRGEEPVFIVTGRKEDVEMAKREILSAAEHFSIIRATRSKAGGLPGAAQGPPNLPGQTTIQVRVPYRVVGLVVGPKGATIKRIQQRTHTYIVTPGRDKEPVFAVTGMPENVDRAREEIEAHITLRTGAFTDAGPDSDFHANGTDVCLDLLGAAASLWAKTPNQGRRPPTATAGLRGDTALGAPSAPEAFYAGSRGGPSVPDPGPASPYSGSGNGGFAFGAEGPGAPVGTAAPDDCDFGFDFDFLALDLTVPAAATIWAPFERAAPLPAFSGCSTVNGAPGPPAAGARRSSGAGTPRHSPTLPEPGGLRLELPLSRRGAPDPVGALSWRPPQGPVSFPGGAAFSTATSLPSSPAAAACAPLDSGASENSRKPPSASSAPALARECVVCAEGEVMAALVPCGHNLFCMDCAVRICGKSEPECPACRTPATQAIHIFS
Method in brief: (§1)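 To obtain EC50, data were fitted with a four-parameter log-logistic model; Kd was then EC50 multiplied by a protein-dependent depletion factor. Beforehand, free RNA oligos (0 nM to 30 μM) were pre-incubated with HEK293-FT lysate (2.5 mg protein/well) for 1 h at 4°C. The lysate then spent 30 min at 4°C with the same 5′-amino-C6 oligos coupled to NHS-Sepharose beads, and bound proteins were quantified by label-free LC-MS/MS, normalised to the control.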

PABPN1 = biological target: T2, PABPN1 (UniProt Q86U42)
T2 sequence: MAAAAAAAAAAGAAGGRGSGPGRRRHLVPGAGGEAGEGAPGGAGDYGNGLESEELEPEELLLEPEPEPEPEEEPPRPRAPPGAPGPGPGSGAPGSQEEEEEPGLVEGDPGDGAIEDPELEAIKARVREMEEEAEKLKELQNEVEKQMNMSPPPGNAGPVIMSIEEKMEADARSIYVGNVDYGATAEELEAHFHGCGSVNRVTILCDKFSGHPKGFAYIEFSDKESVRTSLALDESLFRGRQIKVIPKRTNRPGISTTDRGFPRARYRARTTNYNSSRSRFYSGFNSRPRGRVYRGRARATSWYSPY
Method in brief: as §1

SRRM2 = SRRM2 (UniProt Q9UQ35)
Chain of SRRM2 (Q9UQ35 whole entry): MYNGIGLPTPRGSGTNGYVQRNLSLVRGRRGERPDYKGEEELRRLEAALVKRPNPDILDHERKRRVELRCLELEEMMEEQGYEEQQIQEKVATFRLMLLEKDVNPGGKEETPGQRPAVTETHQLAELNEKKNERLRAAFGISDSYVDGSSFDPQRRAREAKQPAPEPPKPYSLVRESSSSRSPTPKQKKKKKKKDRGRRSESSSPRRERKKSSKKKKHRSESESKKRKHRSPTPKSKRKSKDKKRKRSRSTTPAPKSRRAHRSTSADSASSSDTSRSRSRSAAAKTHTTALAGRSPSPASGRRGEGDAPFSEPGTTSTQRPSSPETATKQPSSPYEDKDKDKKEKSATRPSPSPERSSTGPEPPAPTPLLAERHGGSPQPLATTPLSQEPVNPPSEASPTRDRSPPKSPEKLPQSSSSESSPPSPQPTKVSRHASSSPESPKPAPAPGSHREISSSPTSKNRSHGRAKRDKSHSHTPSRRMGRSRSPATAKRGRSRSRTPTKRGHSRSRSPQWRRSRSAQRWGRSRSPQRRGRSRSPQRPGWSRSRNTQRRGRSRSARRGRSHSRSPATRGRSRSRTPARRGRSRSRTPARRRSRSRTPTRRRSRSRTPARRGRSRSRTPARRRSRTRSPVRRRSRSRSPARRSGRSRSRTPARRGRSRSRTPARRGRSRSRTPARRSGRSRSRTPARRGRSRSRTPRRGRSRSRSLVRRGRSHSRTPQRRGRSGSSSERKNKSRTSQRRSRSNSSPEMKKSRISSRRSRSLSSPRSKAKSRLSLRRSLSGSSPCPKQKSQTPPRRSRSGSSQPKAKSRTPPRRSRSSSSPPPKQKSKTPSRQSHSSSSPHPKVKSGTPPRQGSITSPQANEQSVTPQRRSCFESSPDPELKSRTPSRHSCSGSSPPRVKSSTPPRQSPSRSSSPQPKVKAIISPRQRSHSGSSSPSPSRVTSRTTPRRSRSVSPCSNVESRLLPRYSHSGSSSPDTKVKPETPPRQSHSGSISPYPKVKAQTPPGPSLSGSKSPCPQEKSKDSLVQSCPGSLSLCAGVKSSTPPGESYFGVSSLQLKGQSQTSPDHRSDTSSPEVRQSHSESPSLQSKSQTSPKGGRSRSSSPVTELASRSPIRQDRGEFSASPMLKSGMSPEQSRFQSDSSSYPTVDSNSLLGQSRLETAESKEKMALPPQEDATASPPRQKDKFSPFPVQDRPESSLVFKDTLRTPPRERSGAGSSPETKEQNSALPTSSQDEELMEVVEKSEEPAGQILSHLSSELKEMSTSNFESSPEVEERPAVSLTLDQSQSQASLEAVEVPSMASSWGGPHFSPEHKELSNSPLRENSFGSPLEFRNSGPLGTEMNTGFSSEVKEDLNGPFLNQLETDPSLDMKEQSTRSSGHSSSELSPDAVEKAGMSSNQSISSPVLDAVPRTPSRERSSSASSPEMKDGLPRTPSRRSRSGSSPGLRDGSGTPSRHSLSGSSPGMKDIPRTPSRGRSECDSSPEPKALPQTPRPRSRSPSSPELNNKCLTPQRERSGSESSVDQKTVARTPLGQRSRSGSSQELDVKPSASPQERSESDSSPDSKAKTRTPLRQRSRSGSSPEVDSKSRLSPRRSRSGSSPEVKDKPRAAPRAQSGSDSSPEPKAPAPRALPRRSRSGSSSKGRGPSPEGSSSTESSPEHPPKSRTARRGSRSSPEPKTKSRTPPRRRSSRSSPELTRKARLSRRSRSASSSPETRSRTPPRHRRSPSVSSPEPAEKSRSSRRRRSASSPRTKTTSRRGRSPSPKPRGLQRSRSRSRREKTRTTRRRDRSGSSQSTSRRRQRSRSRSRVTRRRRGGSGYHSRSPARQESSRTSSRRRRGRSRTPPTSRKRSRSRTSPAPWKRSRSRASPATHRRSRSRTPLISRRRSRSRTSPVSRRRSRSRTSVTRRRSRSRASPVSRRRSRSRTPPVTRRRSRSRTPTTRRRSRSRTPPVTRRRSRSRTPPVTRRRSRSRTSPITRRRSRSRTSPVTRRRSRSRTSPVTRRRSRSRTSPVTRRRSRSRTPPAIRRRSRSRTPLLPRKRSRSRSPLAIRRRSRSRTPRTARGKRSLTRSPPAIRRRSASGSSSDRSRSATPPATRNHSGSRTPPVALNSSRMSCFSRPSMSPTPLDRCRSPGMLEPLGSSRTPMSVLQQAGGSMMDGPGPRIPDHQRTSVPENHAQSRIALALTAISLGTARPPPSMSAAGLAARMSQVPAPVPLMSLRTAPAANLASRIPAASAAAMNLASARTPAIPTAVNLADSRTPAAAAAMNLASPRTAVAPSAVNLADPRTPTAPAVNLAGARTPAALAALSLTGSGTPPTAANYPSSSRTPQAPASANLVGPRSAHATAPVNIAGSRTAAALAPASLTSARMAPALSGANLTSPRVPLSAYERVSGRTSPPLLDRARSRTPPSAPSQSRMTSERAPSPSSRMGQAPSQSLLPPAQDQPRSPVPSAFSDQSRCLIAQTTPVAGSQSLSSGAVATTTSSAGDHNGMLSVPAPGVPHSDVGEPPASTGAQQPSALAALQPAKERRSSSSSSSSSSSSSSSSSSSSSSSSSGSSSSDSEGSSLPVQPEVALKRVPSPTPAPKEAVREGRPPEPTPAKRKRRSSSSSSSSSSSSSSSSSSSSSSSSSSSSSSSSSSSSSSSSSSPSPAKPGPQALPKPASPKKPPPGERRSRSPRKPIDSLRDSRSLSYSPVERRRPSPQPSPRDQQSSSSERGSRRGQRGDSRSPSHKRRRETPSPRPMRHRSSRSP
Method in brief: as §1

YTHDC2 = biological target: T3, YTHDC2 (UniProt Q9H6S0)
T3 sequence: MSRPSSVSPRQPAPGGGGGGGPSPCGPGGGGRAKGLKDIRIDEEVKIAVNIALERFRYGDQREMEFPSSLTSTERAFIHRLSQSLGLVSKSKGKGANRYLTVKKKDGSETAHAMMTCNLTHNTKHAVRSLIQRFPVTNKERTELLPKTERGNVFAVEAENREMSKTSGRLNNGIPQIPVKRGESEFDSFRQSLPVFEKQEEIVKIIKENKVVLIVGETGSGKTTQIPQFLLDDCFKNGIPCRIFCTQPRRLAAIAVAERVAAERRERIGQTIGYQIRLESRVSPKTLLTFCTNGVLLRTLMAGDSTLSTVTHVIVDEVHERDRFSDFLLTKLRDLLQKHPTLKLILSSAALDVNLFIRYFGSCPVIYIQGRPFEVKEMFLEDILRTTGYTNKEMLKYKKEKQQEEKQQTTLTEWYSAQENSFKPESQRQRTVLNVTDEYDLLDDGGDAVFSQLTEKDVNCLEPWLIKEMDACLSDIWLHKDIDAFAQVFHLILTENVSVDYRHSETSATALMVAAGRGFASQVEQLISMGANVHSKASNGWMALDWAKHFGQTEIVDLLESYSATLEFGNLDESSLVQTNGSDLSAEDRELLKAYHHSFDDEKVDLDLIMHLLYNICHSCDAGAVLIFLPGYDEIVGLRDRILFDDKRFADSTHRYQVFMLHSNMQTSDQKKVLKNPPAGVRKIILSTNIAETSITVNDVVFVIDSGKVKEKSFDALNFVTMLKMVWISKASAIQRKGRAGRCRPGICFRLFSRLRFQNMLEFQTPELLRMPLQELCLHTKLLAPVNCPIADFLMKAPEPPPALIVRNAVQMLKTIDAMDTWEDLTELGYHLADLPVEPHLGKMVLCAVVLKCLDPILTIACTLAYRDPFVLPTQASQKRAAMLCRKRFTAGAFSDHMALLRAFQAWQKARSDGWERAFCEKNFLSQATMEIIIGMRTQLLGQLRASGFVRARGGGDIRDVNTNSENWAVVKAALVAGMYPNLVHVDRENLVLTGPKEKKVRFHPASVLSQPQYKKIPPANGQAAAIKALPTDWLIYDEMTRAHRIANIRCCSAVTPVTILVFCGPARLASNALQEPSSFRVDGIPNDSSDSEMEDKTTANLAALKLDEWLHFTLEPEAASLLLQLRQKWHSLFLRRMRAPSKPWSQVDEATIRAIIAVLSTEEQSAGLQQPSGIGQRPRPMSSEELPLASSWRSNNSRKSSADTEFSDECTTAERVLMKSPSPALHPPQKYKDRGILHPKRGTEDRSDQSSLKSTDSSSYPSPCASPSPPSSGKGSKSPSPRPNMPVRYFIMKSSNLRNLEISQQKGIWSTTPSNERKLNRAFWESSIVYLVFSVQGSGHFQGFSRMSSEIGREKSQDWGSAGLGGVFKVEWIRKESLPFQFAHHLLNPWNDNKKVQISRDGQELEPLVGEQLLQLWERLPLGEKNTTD
Method in brief: as §1

## UAUUUAU
MEX3D
  Kd: 465 nM

## AAUAAA
PABPN1
  Kd: 368 nM
SRRM2
  Kd: 367 nM

## CUGUCCU
YTHDC2
  Kd: 986 nM
